± gives the standard error. For some of these results: Variants at the floor of the assay were thinned out.
B1: glmS ribozyme (parent)
chain: AUAAAAGCGCCAGAACUACAGAAAUGUAGUUGACGAGGAGGAGGUUUAUCGAAUUUUCGGCGGAUGCCUCCAAA

Key:
Conditions in all cases: with glucosamine-6-phosphate
glucosamine-6-phosphate [1] = variants of: B1; experiment: kcat; higher = faster cleavage; RNA array
How it was run: (§1)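 Sequenced MiSeq chips were the platform: E. coli RNA polymerase transcribed barcoded ribozyme variants on them in situ, and a hybridised Cy3 probe tracked these at 37 °C. After glucosamine-6-phosphate (40 μM to 10 mM) in HEPES/KCl/Mg(OAc)2 buffer was flowed in, tiles were imaged over ~14 h. Signals normalised to baseline and to non-cleaving reference variants were reduced to per-tile medians and fit to one- or two-exponential decays to obtain kobs. kcat and KM were derived through weighted Michaelis–Menten fits across concentrations.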

glucosamine-6-phosphate [2] = variants of: B1; experiment: KM; higher = weaker cofactor use; RNA array
How it was run: as §1

glucosamine-6-phosphate [3] = variants of: B1; experiment: self-cleavage kobs at 40 uM GlcN6P; higher = faster cleavage; RNA array
How it was run: as §1

glucosamine-6-phosphate [4] = variants of: B1; experiment: self-cleavage kobs at 160 uM GlcN6P; higher = faster cleavage; RNA array
How it was run: as §1

glucosamine-6-phosphate [5] = variants of: B1; experiment: self-cleavage kobs at 640 uM GlcN6P; higher = faster cleavage; RNA array
How it was run: as §1

glucosamine-6-phosphate [6] = variants of: B1; experiment: self-cleavage kobs at 2500 uM GlcN6P; higher = faster cleavage; RNA array
How it was run: as §1

glucosamine-6-phosphate [7] = variants of: B1; experiment: self-cleavage kobs at 10000 uM GlcN6P; higher = faster cleavage; RNA array
How it was run: as §1

| Variant | kcat (glucosamine-6-phosphate [1]) [s⁻¹] | KM (glucosamine-6-phosphate [2]) [µM] | self-cleavage kobs at 40 uM GlcN6P (glucosamine-6-phosphate [3]) [s⁻¹] | self-cleavage kobs at 160 uM GlcN6P (glucosamine-6-phosphate [4]) [s⁻¹] | self-cleavage kobs at 640 uM GlcN6P (glucosamine-6-phosphate [5]) [s⁻¹] | self-cleavage kobs at 2500 uM GlcN6P (glucosamine-6-phosphate [6]) [s⁻¹] | self-cleavage kobs at 10000 uM GlcN6P (glucosamine-6-phosphate [7]) [s⁻¹] |
| --- | --- | --- | --- | --- | --- | --- | --- |
| C16U C71A | 0.00166 ± 0.00032 | 298 ± 95 | 0.000186 ± 2.6e-05 | 0.000667 ± 0.00016 | 0.00168 ± 0.0003 | 0.00113 ± 0.00027 | 0.00173 ± 0.00034 |
| C16U U30C | 7.72e-05 ± 8.6e-06 | – | < 1e-05 | 3.52e-05 ± 1.7e-05 | 6.63e-05 ± 2.2e-05 | 5.88e-05 ± 8.5e-06 | 8.45e-05 ± 9.1e-06 |
| C16U U30A | 0.003 ± 0.00083 | 2310 ± 910 | 7.15e-05 ± 7.9e-06 | 0.000131 ± 2.6e-05 | 0.000648 ± 0.00011 | 0.00171 ± 0.00029 | 0.00242 ± 0.00027 |
| A14U C50U C68A | 3.75e-05 ± 1.4e-05 | – | – | – | – | – | < 1e-05 |
| C16A A64G | 0.00134 ± 0.00022 | 2060 ± 520 | 3.87e-05 ± 8.2e-06 | 9.99e-05 ± 1.3e-05 | 0.000277 ± 3.5e-05 | 0.000757 ± 7.7e-05 | 0.00113 ± 0.00015 |
| A15C U30A A48U | 6.89e-05 ± 1.4e-05 | – | < 1e-05 | – | – | 4.08e-05 ± 1.4e-05 | 5.4e-05 ± 2e-05 |
| A15U U31G U47A | 0.000799 ± 0.00019 | 5260 ± 2100 | – | – | 0.000105 ± 2.5e-05 | 0.000221 ± 5.7e-05 | 0.000537 ± 8.1e-05 |
| A15G U56C | 0.0034 ± 0.0013 | – | 5.65e-05 ± 1.3e-05 | 0.00017 ± 2.9e-05 | 0.000805 ± 0.00025 | 0.00116 ± 0.00021 | 0.00354 ± 0.0006 |
| A14U A42G | 0.0156 ± 0.0054 | 2710 ± 1300 | 0.000273 ± 3.1e-05 | 0.00064 ± 0.00015 | 0.00347 ± 0.00055 | 0.00517 ± 0.001 | 0.0147 ± 0.0018 |
| A14U U31C C34G A42G U47A G51A C71A | < 1e-05 | – | – | – | – | – | < 1e-05 |
| G29A C67A | 0.00104 ± 0.00036 | – | 2.96e-05 ± 8.8e-06 | 0.000165 ± 3.2e-05 | 0.000205 ± 3.9e-05 | 0.0005 ± 9.3e-05 | 0.00099 ± 0.00013 |
| A15C U30C | 0.000215 ± 7.8e-05 | – | – | – | 8.27e-05 ± 2.3e-05 | 8.21e-05 ± 1.5e-05 | 0.000177 ± 2.6e-05 |
| G29A C71G | 0.00019 ± 3.4e-05 | – | – | – | 9.26e-05 ± 2.3e-05 | 0.000117 ± 2.3e-05 | 0.000204 ± 3.3e-05 |
| C16A C34U C71U | 1.28e-05 ± 4.6e-06 | – | – | < 1e-05 | – | – | – |
| G29U A52G | 0.00036 ± 7.1e-05 | 3340 ± 1200 | – | – | 6.73e-05 ± 9.7e-06 | 0.000127 ± 2e-05 | 0.00029 ± 3.3e-05 |
| A14G G63U | < 1e-05 | – | < 1e-05 | < 1e-05 | < 1e-05 | < 1e-05 | – |

| Variant | kcat (glucosamine-6-phosphate [1]) [s⁻¹] | KM (glucosamine-6-phosphate [2]) [µM] | self-cleavage kobs at 40 uM GlcN6P (glucosamine-6-phosphate [3]) [s⁻¹] | self-cleavage kobs at 160 uM GlcN6P (glucosamine-6-phosphate [4]) [s⁻¹] | self-cleavage kobs at 640 uM GlcN6P (glucosamine-6-phosphate [5]) [s⁻¹] | self-cleavage kobs at 2500 uM GlcN6P (glucosamine-6-phosphate [6]) [s⁻¹] | self-cleavage kobs at 10000 uM GlcN6P (glucosamine-6-phosphate [7]) [s⁻¹] |
| --- | --- | --- | --- | --- | --- | --- | --- |
| A15U U55G | 0.00423 ± 0.0019 | – | 0.000109 ± 1.3e-05 | 0.000152 ± 4.6e-05 | 0.00134 ± 0.00029 | 0.00204 ± 0.00063 | 0.00356 ± 0.00054 |
| A15C C16A G37U C70U C71G | 1.25e-05 ± 2.5e-06 | – | – | – | – | – | – |
| A15C A64G | 0.00792 ± 0.0013 | 2980 ± 660 | 0.000125 ± 1.6e-05 | 0.00037 ± 6.2e-05 | 0.00113 ± 0.00024 | 0.00387 ± 0.00068 | 0.00614 ± 0.00072 |
| G29U C68G | 3.07e-05 ± 6.3e-06 | – | – | – | – | 3.95e-05 ± 1.1e-05 | – |
| A14U G43U | < 1e-05 | – | < 1e-05 | – | – | – | – |
| A15C A33C | 6.42e-05 ± 3.3e-06 | 1900 ± 440 | – | – | – | 3.95e-05 ± 1.2e-05 | 5.37e-05 ± 6.3e-06 |
| A14U C50U | 4.31e-05 ± 1.5e-06 | 1180 ± 170 | – | – | – | 3.01e-05 ± 1.1e-05 | 3.81e-05 ± 1.1e-05 |
| A15G A33U | 0.0001 ± 9.2e-06 | 2530 ± 740 | < 1e-05 | – | – | 5.25e-05 ± 7e-06 | 7.91e-05 ± 6.4e-06 |
| A15G A33C | 0.000368 ± 3.1e-05 | 2210 ± 330 | – | – | 8.06e-05 ± 9.8e-06 | 0.000213 ± 3e-05 | 0.00029 ± 4.2e-05 |
| A15C C67A | 0.000713 ± 0.00031 | – | 5.14e-05 ± 1.2e-05 | 0.000103 ± 1.7e-05 | 0.000552 ± 0.0001 | 0.000389 ± 0.00012 | 0.000858 ± 0.00022 |
| A15C C67G | 0.0001315 ± 6.7e-07 | 1530 ± 22 | – | – | 3.9e-05 ± 1.4e-05 | 8.12e-05 ± 1.4e-05 | 0.000114 ± 1.8e-05 |
| A15U G59A | 1.53e-05 ± 4.8e-06 | – | < 1e-05 | – | – | – | – |
| C16G U57A C68U | 4.17e-05 ± 9.1e-06 | – | – | – | – | 5.4e-05 ± 2.1e-05 | – |
| C16G C71G | 0.000131 ± 1.2e-05 | 303 ± 130 | – | 6.73e-05 ± 2.1e-05 | 8e-05 ± 1.3e-05 | 0.000114 ± 1.3e-05 | 0.00014 ± 1.8e-05 |
| C16G C71A | 0.000641 ± 0.00015 | 2900 ± 1000 | – | – | 0.000111 ± 1.9e-05 | 0.000462 ± 0.00011 | 0.000465 ± 8.7e-05 |
| A14U A53U | 0.00789 ± 0.00051 | 2540 ± 240 | 0.000127 ± 1.2e-05 | 0.000453 ± 9.2e-05 | 0.00157 ± 0.00019 | 0.00355 ± 0.00044 | 0.00654 ± 0.00056 |

— the supplement of paper PMC7125110
